How the values were obtained:
Test in all cases: two-hybrid library CCNG1;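 note: natural log of median RNA to DNA barcode read ratio; higher means stronger binding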
4H967-bN = target: T1, 4H967-bN
T1 chain: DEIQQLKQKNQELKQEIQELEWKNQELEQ

4H4038-bN = target: T2, 4H4038-bN
T2 chain: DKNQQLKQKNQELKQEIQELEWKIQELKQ

4H1369-bN = target: T3, 4H1369-bN
T3 chain: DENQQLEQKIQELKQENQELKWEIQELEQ

4H3782-bN = target: T4, 4H3782-bN
T4 chain: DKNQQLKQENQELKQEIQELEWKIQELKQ

4H2610-bN = target: T5, 4H2610-bN
T5 chain: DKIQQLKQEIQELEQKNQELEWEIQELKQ

4H607-bN = target: T6, 4H607-bN
T6 chain: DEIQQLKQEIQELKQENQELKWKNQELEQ

4H4001-bN = target: T7, 4H4001-bN
T7 chain: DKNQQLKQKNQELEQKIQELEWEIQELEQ

4H2667-bN = target: T8, 4H2667-bN
T8 chain: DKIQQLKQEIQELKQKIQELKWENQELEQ

4H1446-bN = target: T9, 4H1446-bN
T9 chain: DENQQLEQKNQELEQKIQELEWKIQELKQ

4H3843-bN = target: T10, 4H3843-bN
T10 chain: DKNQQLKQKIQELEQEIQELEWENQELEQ

4H953-bN = target: T11, 4H953-bN
T11 chain: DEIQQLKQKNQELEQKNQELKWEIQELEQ

4H797-bN = target: T12, 4H797-bN
T12 chain: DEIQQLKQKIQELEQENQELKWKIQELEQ

4H1406-bN = target: T13, 4H1406-bN
T13 chain: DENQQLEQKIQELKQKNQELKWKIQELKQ

4H3189-bN = target: T14, 4H3189-bN
T14 chain: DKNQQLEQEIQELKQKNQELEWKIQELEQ

4H1193-bN = target: T15, 4H1193-bN
T15 chain: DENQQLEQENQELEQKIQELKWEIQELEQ

4H3907-bN = target: T16, 4H3907-bN
T16 chain: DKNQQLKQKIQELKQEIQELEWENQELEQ

4H3601-bN = target: T17, 4H3601-bN
T17 chain: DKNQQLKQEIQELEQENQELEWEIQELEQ

4H3592-bN = target: T18, 4H3592-bN
T18 chain: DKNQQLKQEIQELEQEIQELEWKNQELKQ

4H462-bN = target: T19, 4H462-bN
T19 chain: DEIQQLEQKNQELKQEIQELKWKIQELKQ

4H883-bN = target: T20, 4H883-bN
T20 chain: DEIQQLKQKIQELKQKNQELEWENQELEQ

4H687-bN = target: T21, 4H687-bN
T21 chain: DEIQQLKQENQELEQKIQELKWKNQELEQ

4H331-bN = target: T22, 4H331-bN
T22 chain: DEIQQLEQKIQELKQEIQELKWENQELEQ

4H2697-bN = target: T23, 4H2697-bN
T23 chain: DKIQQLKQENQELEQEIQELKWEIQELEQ

4H3606-bN = target: T24, 4H3606-bN
T24 chain: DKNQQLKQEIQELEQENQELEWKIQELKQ

4H568-bN = target: T25, 4H568-bN
T25 chain: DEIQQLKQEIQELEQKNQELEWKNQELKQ

4H1387-bN = target: T26, 4H1387-bN
T26 chain: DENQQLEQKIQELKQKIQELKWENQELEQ

4H1328-bN = target: T27, 4H1328-bN
T27 chain: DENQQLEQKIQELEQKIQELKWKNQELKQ

4H370-bN = target: T28, 4H370-bN
T28 chain: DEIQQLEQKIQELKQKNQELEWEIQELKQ

4H72-bN = target: T29, 4H72-bN
T29 chain: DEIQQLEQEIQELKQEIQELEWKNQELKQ

4H1845-bN = target: T30, 4H1845-bN
T30 chain: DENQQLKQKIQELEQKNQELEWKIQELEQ

4H918-bN = target: T31, 4H918-bN
T31 chain: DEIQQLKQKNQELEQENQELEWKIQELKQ

4H2576-bN = target: T32, 4H2576-bN
T32 chain: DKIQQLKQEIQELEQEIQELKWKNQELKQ

B1: 4H1193-bN (peptide)
chain: DENQQLEQENQELEQKIQELKWEIQELEQ
4H967-bN
  interaction score: -0.916
4H4038-bN
  interaction score: 1.89
4H1369-bN
  interaction score: -0.409
4H3782-bN
  interaction score: 1.24
4H2610-bN
  interaction score: -2.18
4H607-bN
  interaction score: -0.718
4H4001-bN
  interaction score: -0.667
4H2667-bN
  interaction score: -1.42
4H1446-bN
  interaction score: -0.688
4H3843-bN
  interaction score: -1.2
4H953-bN
  interaction score: -0.991
4H797-bN
  interaction score: -0.958
4H1406-bN
  interaction score: -0.457
4H3189-bN
  interaction score: -0.76
4H1193-bN
  interaction score: -1.79
4H3907-bN
  interaction score: -0.628
4H3601-bN
  interaction score: -0.788
4H3592-bN
  interaction score: -0.683
4H462-bN
  interaction score: 1.11
4H883-bN
  interaction score: -0.365
4H687-bN
  interaction score: -0.463
4H331-bN
  interaction score: -1.06
4H2697-bN
  interaction score: -0.604
4H3606-bN
  interaction score: -0.563
4H568-bN
  interaction score: -0.982
4H1387-bN
  interaction score: -2.15
4H1328-bN
  interaction score: -0.785
4H370-bN
  interaction score: -1.1
4H72-bN
  interaction score: -2.07
4H1845-bN
  interaction score: -0.197
4H918-bN
  interaction score: -1.23
4H2576-bN
  interaction score: -2.2

— article PMC10397247
